Columns and labels:
[1] = molecular target: T1, IL-18 receptor (IL-18Rα/IL-18Rβ) overexpressed on HEK-Blue IL-18 cells (Homo sapiens (Human), UniProt Q13478 19-541; O95256 20-599); experiment: cell-based or functional assay
T1 sequence 1: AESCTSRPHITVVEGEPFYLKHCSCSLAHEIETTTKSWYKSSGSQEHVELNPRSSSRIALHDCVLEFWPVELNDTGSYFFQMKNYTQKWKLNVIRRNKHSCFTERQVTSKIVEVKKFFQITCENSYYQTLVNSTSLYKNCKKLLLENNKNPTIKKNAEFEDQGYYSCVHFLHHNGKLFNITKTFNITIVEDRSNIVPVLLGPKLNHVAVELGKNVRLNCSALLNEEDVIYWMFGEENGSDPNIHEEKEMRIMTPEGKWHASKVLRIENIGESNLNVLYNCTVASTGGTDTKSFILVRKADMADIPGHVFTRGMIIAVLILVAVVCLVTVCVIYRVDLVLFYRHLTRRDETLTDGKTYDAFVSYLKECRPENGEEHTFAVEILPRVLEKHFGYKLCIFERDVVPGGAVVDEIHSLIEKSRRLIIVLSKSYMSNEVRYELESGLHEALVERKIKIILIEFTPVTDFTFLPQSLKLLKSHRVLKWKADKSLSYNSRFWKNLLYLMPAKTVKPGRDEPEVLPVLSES
T1 sequence 2: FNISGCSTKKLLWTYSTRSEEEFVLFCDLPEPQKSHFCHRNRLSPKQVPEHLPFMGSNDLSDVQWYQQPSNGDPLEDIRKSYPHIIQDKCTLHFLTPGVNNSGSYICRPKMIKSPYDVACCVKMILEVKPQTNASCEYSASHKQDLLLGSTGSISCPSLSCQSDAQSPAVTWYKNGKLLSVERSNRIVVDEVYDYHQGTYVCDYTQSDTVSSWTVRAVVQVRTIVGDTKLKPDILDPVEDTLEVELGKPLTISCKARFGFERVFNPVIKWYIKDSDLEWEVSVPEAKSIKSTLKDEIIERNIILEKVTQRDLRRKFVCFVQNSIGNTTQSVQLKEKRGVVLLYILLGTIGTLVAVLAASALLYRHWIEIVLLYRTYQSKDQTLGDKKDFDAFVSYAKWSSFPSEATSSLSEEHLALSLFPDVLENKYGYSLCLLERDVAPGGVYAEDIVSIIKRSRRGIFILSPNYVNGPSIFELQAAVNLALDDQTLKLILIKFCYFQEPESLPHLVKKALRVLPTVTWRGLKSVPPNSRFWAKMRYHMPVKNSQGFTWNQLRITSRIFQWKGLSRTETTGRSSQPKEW

human IL-18Rα = molecular target: T2, human IL-18Rα (human, UniProt Q13478 19-329, limits assumed); experiment: SPR (Carterra LSA), antibody captured on anti-human IgG-Fc, monomeric antigen as analyte, 25 C
T2 construct: Monomeric antigen injected in SPR; also called huIL18Ra; IL-18R alpha
T2 sequence: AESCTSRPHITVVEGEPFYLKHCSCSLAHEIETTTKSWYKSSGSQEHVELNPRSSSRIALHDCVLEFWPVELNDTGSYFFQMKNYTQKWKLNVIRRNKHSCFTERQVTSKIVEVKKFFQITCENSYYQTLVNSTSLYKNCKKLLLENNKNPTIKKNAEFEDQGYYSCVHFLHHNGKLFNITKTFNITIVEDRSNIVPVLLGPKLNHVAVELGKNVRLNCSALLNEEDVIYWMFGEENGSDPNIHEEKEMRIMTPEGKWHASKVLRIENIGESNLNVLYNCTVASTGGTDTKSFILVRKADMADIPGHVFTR
Description: (§1) SPR experiments were performed using Carterra LSA equipped with an HC30M chip (Carterra-Bio). Binding assays were carried out at 25° C. with HBSTE (10 mM HEPES ph7.4, 150 mM NaCl, 3 mM EDTA, 0.05% Tween-20) with 0.5 g/L BSA. A density of anti-human IgG-Fc capture lawn was established on an HC30M chip using amine coupling. […] Coupling of goat anti-human IgG (H+L) multi-species SP ads-UNLB (Southern Biotech, 2087-01) with standard immobilization was done for 15 minutes in 10 mM sodium acetate pH 4.5 and quenched using 1M ethanolamine HCl PH8.5. The anti-human IgG-Fc capture surface was then used to capture a panel of antibodies at 20 μg/mL. Monomeric antigen for human IL-18Rα, human IL-18Rβ, cynomolgus IL-18Rα, or rhesus IL-18Rβ targeted by the antibodies was injected over the captured antibody array at 6 concentrations in 4-fold dilution series starting at 500 nM. Binding data was referenced and blanked from a buffer injected, then globally fit to a 1:1 Langmuir binding model for estimation of ka, kd, and KD using Carterra Kinetics Software.

human IL-18Rβ = molecular target: T3, human IL-18Rβ (human, UniProt O95256 20-356, limits assumed); experiment: as above
T3 construct: Monomeric antigen injected in SPR; also called IL-18R beta; IL-18Rb
T3 sequence: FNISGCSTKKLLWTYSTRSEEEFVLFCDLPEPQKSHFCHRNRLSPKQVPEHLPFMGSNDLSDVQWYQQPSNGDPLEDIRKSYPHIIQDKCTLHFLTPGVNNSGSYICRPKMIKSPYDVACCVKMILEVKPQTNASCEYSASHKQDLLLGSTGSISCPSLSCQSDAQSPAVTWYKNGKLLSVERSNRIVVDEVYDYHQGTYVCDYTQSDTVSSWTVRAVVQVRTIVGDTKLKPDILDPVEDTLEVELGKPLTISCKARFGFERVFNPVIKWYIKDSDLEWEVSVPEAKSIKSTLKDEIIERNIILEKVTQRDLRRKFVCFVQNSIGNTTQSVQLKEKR
Description: as §1

cynomolgus IL-18Rα = molecular target: T4, cynomolgus IL-18Rα (cynomolgus, UniProt A0A2K5V3J9 19-328); experiment: as above
T4 construct: also called Cyno IL-18Rα; non-human primate IL-18Rα
T4 sequence: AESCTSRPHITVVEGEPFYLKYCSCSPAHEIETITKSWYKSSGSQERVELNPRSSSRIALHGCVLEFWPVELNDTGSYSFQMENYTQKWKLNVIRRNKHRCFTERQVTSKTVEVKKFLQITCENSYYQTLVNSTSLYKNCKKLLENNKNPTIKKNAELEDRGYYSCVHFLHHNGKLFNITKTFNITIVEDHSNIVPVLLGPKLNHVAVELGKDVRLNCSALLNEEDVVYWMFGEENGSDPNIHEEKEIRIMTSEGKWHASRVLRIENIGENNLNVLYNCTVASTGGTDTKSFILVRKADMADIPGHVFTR
Description: as §1

rhesus IL-18Rβ = molecular target: T5, rhesus IL-18Rβ (rhesus, UniProt F7HHC1 20-356); experiment: as above
T5 construct: also called non-human primate IL-18Rβ
T5 sequence: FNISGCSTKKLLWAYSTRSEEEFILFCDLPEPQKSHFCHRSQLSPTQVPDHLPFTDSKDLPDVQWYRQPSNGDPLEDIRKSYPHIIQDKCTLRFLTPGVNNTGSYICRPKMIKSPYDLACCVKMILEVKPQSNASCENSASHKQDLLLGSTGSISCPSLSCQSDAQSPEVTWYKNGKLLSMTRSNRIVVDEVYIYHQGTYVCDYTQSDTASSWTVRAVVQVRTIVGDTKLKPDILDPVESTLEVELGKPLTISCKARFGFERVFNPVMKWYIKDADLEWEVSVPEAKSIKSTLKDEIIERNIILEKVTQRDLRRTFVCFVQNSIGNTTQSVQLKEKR
Description: as §1

[2] = molecular target: T6, IL-18 receptor (IL-18Rα/IL-18Rβ) on human PBMCs (human, UniProt Q13478 19-541; O95256 20-599); experiment: cell-based or functional assay
T6 sequence 1: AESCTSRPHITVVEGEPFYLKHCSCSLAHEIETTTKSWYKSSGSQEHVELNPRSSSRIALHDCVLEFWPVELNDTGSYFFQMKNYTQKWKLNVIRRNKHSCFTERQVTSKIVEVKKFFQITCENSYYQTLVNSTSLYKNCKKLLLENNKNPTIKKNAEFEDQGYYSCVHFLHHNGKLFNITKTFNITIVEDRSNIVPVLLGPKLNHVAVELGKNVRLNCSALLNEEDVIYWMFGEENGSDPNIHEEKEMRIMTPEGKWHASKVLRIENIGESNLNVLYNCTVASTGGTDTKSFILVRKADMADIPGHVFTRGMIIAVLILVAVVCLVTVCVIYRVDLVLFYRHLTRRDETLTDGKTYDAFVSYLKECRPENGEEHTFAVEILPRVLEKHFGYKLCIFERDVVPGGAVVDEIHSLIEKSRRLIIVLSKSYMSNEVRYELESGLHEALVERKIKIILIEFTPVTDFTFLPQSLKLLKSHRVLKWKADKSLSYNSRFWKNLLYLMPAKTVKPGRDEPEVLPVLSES
T6 sequence 2: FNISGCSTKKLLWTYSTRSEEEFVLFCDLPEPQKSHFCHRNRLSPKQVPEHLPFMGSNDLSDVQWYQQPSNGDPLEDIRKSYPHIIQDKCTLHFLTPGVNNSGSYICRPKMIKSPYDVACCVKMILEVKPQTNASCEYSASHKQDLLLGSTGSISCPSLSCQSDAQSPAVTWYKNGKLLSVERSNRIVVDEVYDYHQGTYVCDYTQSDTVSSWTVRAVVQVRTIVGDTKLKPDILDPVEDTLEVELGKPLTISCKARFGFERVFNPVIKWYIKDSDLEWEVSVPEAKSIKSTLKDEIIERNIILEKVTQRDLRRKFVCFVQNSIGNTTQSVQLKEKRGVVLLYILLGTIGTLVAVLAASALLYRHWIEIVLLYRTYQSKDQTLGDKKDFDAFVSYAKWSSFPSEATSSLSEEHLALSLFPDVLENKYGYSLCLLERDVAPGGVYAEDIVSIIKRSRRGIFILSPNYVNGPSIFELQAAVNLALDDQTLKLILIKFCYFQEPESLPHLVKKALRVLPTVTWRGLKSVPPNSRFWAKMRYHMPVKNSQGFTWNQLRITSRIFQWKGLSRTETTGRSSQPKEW

[3] = molecular target: T1, IL-18 receptor (IL-18Rα/IL-18Rβ) …; experiment: cell-based or functional assay; remark: listed apart in the source

Binder	HEK-Blue IL-18: Abs 405 at 100 nM [1] [Abs]	HEK-Blue IL-18: Fold over Background [1] [fold]	Kd (human IL-18Rα) [nM]	Kd (human IL-18Rβ) [nM]	Kd (cynomolgus IL-18Rα) [nM]	Kd (rhesus IL-18Rβ) [nM]	PBMC: calculated maximum induction of IFNγ after 24 hours, donor 1 [2]	PBMC: calculated maximum induction of IFNγ after 24 hours, donor 2 [2]	PBMC: calculated maximum induction of IFNγ after 24 hours, donor 3 [2]	PBMC: calculated maximum induction of IFNγ after 24 hours, donor 4 [2]	PBMC: calculated maximum induction of IFNγ after 24 hours, donor 5 [2]	PBMC: calculated maximum induction of IFNγ after 24 hours, donor 6 [2]	EC50 (read off the curve), HEK Blue IL-18 SEAP reporter [3] [nM]
DGL346 (bispecific antibody, humanized) heavy 1: EVQLVESGGGLIQPGGSLRLSCAASGSISSRDTMGWYRQAPGKGREMVSVISSSGNTNYADSVLGRFTISRDNAKNTVYLQMNALRAEDTAVYKCYAHRTYGVDYWGQGTLVTVSSGGGSQVQLVESGGGLVQPGGSLRLSCAASGRTFSSYTMGWFRQAPGKGREFVSAISWSAGRTYYADSVKGRFTISRDNAKNTVYLQMNALRAEDTAVYYCAAEEAPDWAPIDCSGYGCLSLYDYWGQGTLVTVSDKTHTCPPCPAPEAAGAPSVFLFPPKPKDTLYITREPEVTCVVVDVSHEDPEVKFNWYVDGVEVHNAKTKPREEQYNSTYRVVSVLTVLHQDWLNGKEYKCKVSNKALPAPIEKTISKAKGQPREPQVCTLPPSRDELTKNQVSLSCAVKGFYPSDIAVEWESNGQPENNYKTTPPVLDSDGSFFLVSKLTVDKSRWQQGNVFSCSVMHEALHNHYTQKSLSLSPG heavy 2: DKTHTCPPCPAPEAAGAPSVFLFPPKPKDTLYITREPEVTCVVVDVSHEDPEVKFNWYVDGVEVHNAKTKPREEQYNSTYRVVSVLTVLHQDWLNGKEYKCKVSNKALPAPIEKTISKAKGQPREPQVYTLPPCRDELTKNQVSLWCLVKGFYPSDIAVEWESNGQPENNYKTTPPVLDSDGSFFLYSKLTVDKSRWQQGNVFSCSVMHEALHNHYTQKSLSLSPG	1.34	7.2	60	2.2	900	10	16000	1700	22000	17000	15000	3000	–
DGL620 (bispecific antibody) heavy 1: EVQLLESGGGLVQPGGSLRLSCAASGRTFSKHAMGWFRQAPGKGLEFVSAIDWSGGSTYYADSVKGRFTISRDNSKNTVYLQMNSLRAEDTAVYYCAADSYTDYAQLWLPELESEYDYWGQGTLVTVSSCPPCPAPEAAGAPSVFLFPPKPKDTLYITREPEVTCVVVDVSHEDPEVKFNWYVDGVEVHNAKTKPREEQYNSTYRVVSVLTVLHQDWLNGKEYKCKVSNKALPAPIEKTISKAKGQPREPQVCTLPPSRDELTKNQVSLSCAVKGFYPSDIAVEWESNGQPENNYKTTPPVLDSDGSFFLVSKLTVDKSRWQQGNVFSCSVMHEALHNHYTQKSLSLSPG heavy 2: QLQLLESGGGLVQAGGSLRLSCAASRSITFSHNVMGWYRQAPGKGRELVSSIGSGGSTNYVDSVKGRFTISRDNSKKTLYLQMNSLRAEDTAVYYCGVVVGVYRGSLGQGTLVTVSSCPPCPAPEAAGAPSVFLFPPKPKDTLYITREPEVTCVVVDVSHEDPEVKFNWYVDGVEVHNAKTKPREEQYNSTYRVVSVLTVLHQDWLNGKEYKCKVSNKALPAPIEKTISKAKGQPREPQVYTLPPCRDELTKNQVSLWCLVKGFYPSDIAVEWESNGQPENNYKTTPPVLDSDGSFFLYSKLTVDKSRWQQGNVFSCSVMHEALHNHYTQKSLSLSPG	1.87	10.1	8	14	10	–	16000	1300	22000	19000	15000	2400	~1
DGL336 (bispecific antibody, V domains shown, humanized VHH-Fc heterodimer) V domain 1: EVQLLESGGGLVQPGGSLRLSCAASGRTFSKHAMGWFRQAPGKGLEFVSAIDWSGGSTYYADSVKGRFTISRDNSKNTVYLQMNSLRAEDTAVYYCAADSYTDYAQLWLPELESEYDYWGQGTLVTVSS V domain 2: EVQLVESGGGLIQPGGSLRLSCAASGSISSRDTMGWYRQAPGKGREMVSVISSSGNTNYADSVLGRFTISRDNAKNTVYLQMNALRAEDTAVYKCYAHRTYGVDYWGQGTLVTVSS	0.9	4.9	11	3.2	14	15	13000	620	17000	9300	1500	1300	–

— patent publication US20240209100A1 (DIAGONAL THERAPEUTICS, published 2024)
